# Results reported in article PMC5739296.
# Target: Villin-1 (human (endogenous in HepG2)) (UniProt P09327)
# Assay: co-IP
# Chain of UniProt P09327 (P09327 whole entry): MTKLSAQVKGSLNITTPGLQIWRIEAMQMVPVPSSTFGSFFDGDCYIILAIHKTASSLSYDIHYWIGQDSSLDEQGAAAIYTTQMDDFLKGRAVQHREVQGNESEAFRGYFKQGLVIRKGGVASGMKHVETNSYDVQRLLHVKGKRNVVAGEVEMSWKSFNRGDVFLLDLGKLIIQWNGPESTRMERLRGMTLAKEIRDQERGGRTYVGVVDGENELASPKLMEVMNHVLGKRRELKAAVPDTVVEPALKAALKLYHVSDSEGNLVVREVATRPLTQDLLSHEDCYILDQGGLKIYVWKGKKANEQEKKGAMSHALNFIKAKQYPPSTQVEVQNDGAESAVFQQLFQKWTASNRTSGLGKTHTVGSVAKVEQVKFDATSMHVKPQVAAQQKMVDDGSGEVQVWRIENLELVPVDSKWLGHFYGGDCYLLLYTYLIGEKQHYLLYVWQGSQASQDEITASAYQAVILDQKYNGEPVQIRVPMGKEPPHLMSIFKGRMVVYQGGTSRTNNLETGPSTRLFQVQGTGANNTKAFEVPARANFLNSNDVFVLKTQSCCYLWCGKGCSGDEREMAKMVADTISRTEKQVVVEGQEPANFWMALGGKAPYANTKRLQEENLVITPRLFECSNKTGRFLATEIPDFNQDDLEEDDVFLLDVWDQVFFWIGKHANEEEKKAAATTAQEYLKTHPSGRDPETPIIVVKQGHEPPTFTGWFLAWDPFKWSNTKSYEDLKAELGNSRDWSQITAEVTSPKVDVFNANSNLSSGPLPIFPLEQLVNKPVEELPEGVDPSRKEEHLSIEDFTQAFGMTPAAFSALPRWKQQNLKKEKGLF
substance,measurement,value
"ß-actin (actin, cytoplasmic 1, ACTB) (from UniProt P60709 1-375) (natural protein)",fold change of co-precipitated actin after fusion against control,28.7 fold
